The results in this text go back to US20200040064A1 (OHIO STATE INNOVATION FOUNDATION, published 2020).

The target of this assay is T1, protein A on wild type Staphylococcus aureus newman strain bacteria (Staphylococcus aureus (newman strain), UniProt P0A015 37-419).
T1 construct: also called wt S.A; Staphylococcus aureus (wt)
Kind of assay: flow cytometry, labeled CD64 on wt S. aureus in the absence of rituximab. On the technique in general: In flow cytometry, cells or beads pass a laser one at a time.

B1: fluorescently labeled human Fcγ receptor CD64 (receptor)
chain: QVDTTKAVITLQPPWVSVFQEETVTLHCEVLHLPGSSSTQWFLNGTATQTSTPSYRITSASVNDSGEYRCQRGLSGRSDPIQLEIHRGWLLLQVSSRVFTEGEPLALRCHAWKDKLVYNVLYYRNGKAFKFFHWNSNLTILKTNISHNGTYHCSGMGKHRYTSAGISVTVKELFPAPVLNASVTSPLLEGNLVTLSCETKLLLQRPGLQLYFSFYMGSKTLRGRNTSSEYQILTARREDSGLYWCEAATEDGNVLKRSPELELQVLGLQLPTP
modifications: fluorescently labeled
In the case of B1, the binding result is listed as “no binding”.
